Measurements taken from PMC12265263, “H2A.X N-terminal acetylation is a newly identified NAA40-mediated modification that is responsive to UV irradiation” (Epigenetics & Chromatin, 2025).

Assays:
human NAA40 E139Q = test: Fluorescence-based in vitro Nt-acetylation assay, N-terminal 17-mer peptides, catalytically inactive NAA40 E139Q; type: biochemical; conditions: 17-mer peptide 15 μM, 10 μM acetyl-CoA, 0.1 μM hNAA40 E139Q, 25 mM HEPES pH 7.5, 5 min, triplicate, repeated two times, Fig. 1E
Experimental: (§1) hNAA40 (NCBI: NM_024771.4) WT and E139Q were cloned in pGEX-5 × 1 vector. The plasmids were transformed in BL21 (DE3) codon plus RIL pACYC E. coli cells, generously provided by Till Bartke (Institute of Functional Epigenetics, Helmholtz Munich). The transformed bacteria were grown in 40 mL Lysogeny Broth (LB) medium complemented with 100 μg/mL Ampicillin (Sigma A9518) and 25 μg/mL Chloramphenicol (Sigma C0378-5G) for 16 h at 37 °C. Final culture volume was adjusted to 400 mL with LB and the growth was resumed for 2 h. Protein expression was initiated by adding 0.1 mM isopropyl β-D-1-thiogalactopyranoside (IPTG) (Thermo Fisher Scientific 15529019) and incubating further for 4 h at 37 °C. Bacteria were pelleted and resuspended in ice cold PBS/1% Triton-X100 supplemented with protease inhibitors. Cells were lysed by small probe sonication (amplitude 30%, 3 × 45 s on ice). Lysate bacteria were pelleted, and the supernatant was incubated with Glutathione agarose beads (Cytiva 17075601) for 1 h. Then, washing steps were made with ice cold PBS/1% Triton-X100 and ice-cold PBS. The beads with the recombinant GST-NAA40 WT or E139Q were stored at − 20 °C in 80% PBS/20% glycerol. To obtain the GST tagged hNAA40, the buffer 50 mM Tris HCL pH 8, 20 mM reduced Glutathione-20% glycerol was used to elute the GST-NAA40. To obtain the untagged version of hNAA40, hNAA40 was enzymatically cut by Factor Xa (NEB P8010S) from the beads and was dialyzed in 50 mM Tris–HCL pH 7.5, 100 mM NaCl, 25% Glycerol. The recombinant proteins were confirmed by SDS-PAGE and the concentrations were determined using the BIO-RAD protein assay dye reagent (BIO-RAD 5000006) and Nanodrop 1000.
An adaptation of the previous described fluorescence assay was used to study the kinetics of hNAA40 with the histone substrates H2A.X, H2A, and H4. […] The fluorescence was monitored with Tecan Spark multimode reader with excitation 410 ± 20 nm and emission 475 ± 20 nm, and the duration of the reaction was 5 min. […]

human NAA40 WT = target: T1, human NAA40 WT (Homo sapiens, UniProt Q86UY6); test: Fluorescence-based in vitro Nt-acetylation assay, N-terminal 17-mer peptides, wild-type NAA40; type: biochemical; conditions: for Nt-acetylation by recombinant wild type NAA40: 17-mer peptide 15 μM, 0.1 μM hNAA40, 15 μM Thioglo4, 25 mM HEPES pH 7.5, 150 mM NaCl, 0.01% Triton X100, 5 min, fluorescence ex 410/em 475 nm, ΔRFU/min, triplicate, repeated two times, Fig. 1E
T1 construct: GST (N); made in house; host or cells: E. coli BL21 (DE3) codon plus RIL
Experimental: as §1
An adaptation of the previous described fluorescence assay was used to study the kinetics of hNAA40 with the histone substrates H2A.X, H2A, and H4. Specifically, the full-length histone proteins H2A.X (TEBU BIO 23615-0307), H2A, H4, and H2B, and 17-mer peptides corresponding to the N-terminal end of H4, H2A.X, H2A.J, SMARCD2 were tested with WT or E139Q hNAA40. The peptides used in this study were synthesized by BIOSYNTAN GmbH, with > 95% purity. Final substrate concentration was 15μM for the rate comparison between WT and E139Q hNAA40 (ΔRFU/min), and for the Km determination the concentration ranged from 0.1 μM to 25 μM (1:2 dilutions). The reactions were in triplicate, repeated two times and contained 15 μM Thioglo4 (Merck 595504), 10 μM Acetyl coenzyme A lithium salt (Santa Cruz sc-214465), 25 mM HEPES pH 7.5, 150 mM NaCl, 0.01% Triton X100), 0.1μM hNAA40 in a final volume of 40 μl. The reaction was initiated with the addition of the substrate. The fluorescence was monitored with Tecan Spark multimode reader with excitation 410 ± 20 nm and emission 475 ± 20 nm, and the duration of the reaction was 5 min. We generated the standard curve y = 685.2*X-92.53 using 0–10 μM 1:2 dilutions of Coenzyme A sodium salt hydrate (Merck C13144) and 25 mM HEPES pH 7.5, 150 mM NaCl, 0.01% Triton X100. GraphPad Prism 8 was used for the enzyme kinetics analyses.

Row | Nt-acetylation by recombinant wild type NAA40 (human NAA40 WT; 10 μM acetyl-CoA) | Substance | Nt-acetylation by catalytically inactive NAA40 (E139Q) (human NAA40 E139Q) | Michaelis constant (Km), stated as affinity (inverse measure) (human NAA40 WT; 17-mer peptides 0.1 μM to 25 μM (1:2 dilutions), 10 μM acetyl-CoA, 0.1 μM hNAA40, pH 7.5, Fig. 1F) | catalytic efficiency (kcat/Km) (human NAA40 WT; 17-mer peptides, Fig. 1H)
1 | Nt-acetylated by the wild-type | H2A.J peptide: 17 amino acid long peptide corresponding to the N-terminal end of H2A.J (MSGRGKQGGKVRAKAKS; UniProt Q9BTM1 1-17, looked up, fragment) | not the catalytically inactive human NAA40 | – | –
2 | Nt-acetylated by the wild-type | H2A.X peptide: 17 amino acid long peptide corresponding to the N-terminal end of H2A.X (SGRGKTGGKARAKAKSR; UniProt P16104 2-18, looked up, fragment) | not the catalytically inactive human NAA40 | – | –

Row | Substance | Nt-acetylation by recombinant wild type NAA40 (human NAA40 WT; 10 μM acetyl-CoA) | Nt-acetylation by catalytically inactive NAA40 (E139Q) (human NAA40 E139Q) | Michaelis constant (Km), stated as affinity (inverse measure) (human NAA40 WT; 17-mer peptides 0.1 μM to 25 μM (1:2 dilutions), 10 μM acetyl-CoA, 0.1 μM hNAA40, pH 7.5, Fig. 1F) | catalytic efficiency (kcat/Km) (human NAA40 WT; 17-mer peptides, Fig. 1H)
3 | SMARCD2 peptide: 17 amino acid long peptide corresponding to the N-terminal end of SMARCD2 (MSGRGAGGFPLPPLSPG; UniProt Q92925 1-17, looked up, fragment) | Nt-acetylated by the wild-type | not the catalytically inactive human NAA40 | significantly lower | significantly lower than histones
